Test system: pathway specific substrates
Assay: Enzyme functionality of pathway enzyme homologs and fusion constructs in lysed E. coli cell extracts, product by HPLC
Type: biochemical, E. coli BL21
Conditions: recombinant E. coli BL21 clone, lysed cell extract
Method in brief: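 Enzymes and fusion constructs were expressed in E. coli BL21 (pET28, T7 promoter) with 0.1 mM IPTG at 30 °C for ~20 h in M9 medium. Cleared freeze-thaw lysates were incubated with pathway-specific substrates. Products were quantified by HPLC relative to empty-plasmid lysates.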

B1: O-methyltransferase 3 (OMT) (SEQ ID NO: 30) Sinopodophyllum hexandrum (protein)
chain: MEMAPTMDLEIRNGNGYGDSGEELLAAQAHIYNHIFNFISSMALKCAVELNIPEILHNHQPKAVTLSELVQALQIPQAKSACLYRLLRILVHSGFFAITKIQSEGDEEGYLPTLSSKLLLKNHPMSMSPCLLGLVNPTMVAPMHFFSDWFKRSDDMTPFEATHGASLWKYFGETPHMAEIFNEAMGCETRLAMSVVLKECKGKLEGISSLVDVGGGTGNVGRAIAEAFPNVKCTVLDLPQVVGNLKGSNNLEFVSGDMFQFIPPADVVFLKWILHDWNDEECIKILKRCKEAIPSKEEGGKLIIIDMVVNDHNKGSYESTETQLFYDLTLMALLTGTERTETEWKKLFVAAGFTSYIISPVLGLKSIIEVFP
modifications: Depcits amino acid sequence of O-methyltransferase 3 (OMT) of Sinopodophyllum hexandrum
Question: For B1, which “Enzyme activity in terms of product formation (in %)” value (“Enzyme activity in terms … (in %)” below) (substrate tested: Pluviatolide) is on record?
Answer: 99%

B2: CYP719 (SEQ ID NO: 24) Papaver somniferum (protein, listed as Papaver somniferum)
chain: MIMSNLWILTLISTILAVFAAVLIIFRRRISASTTEWPVGPKTLPIIGNLHILGGTALHVVLHKLAEVYGSVMTIWIGSWKPVIIVSDFDRAWEVLVNKSSDYSAREMPEITKIGTANWRTISSSDSGPFWATLRKGLQSVALSPQHLASQTAHQERDIIKLIKNLKDEAASGMVKPLDHLKKATVRLISRLIYGQDFDDDKYVEDMHDVIEFLIRISGYAQLAEVFYYAKYLPGHKRAVTGAEEAKRRVIALVRPFLQSNPATNTYLHFLKSQLYPEEVIIFAIFEAYLLGVDSTSSTTAWALAFLIREPSVQEKLYQELKNFTANNNRTMLKVEDVNKLPYLQAVVKETMRMKPIAPLAIPHKACKDTSLMGKKVDKGTKVMVNIHALHHTEKVWKEPYKFIPERFLQKHDKAMEQSLLPFSAGMRICAGMELGKLQFSFSLANLVNAFKWSCVSDGVLPDMSDLLGFVLFMKTPLEARIVPRL
Question: Which “Enzyme activity in terms … (in %)” value (substrate tested: Matairesinol) does the source give for B2 here?
Answer: 76%

B3: Secoisolariciresinol dehydrogenase (SDH) (SEQ ID NO: 22) Juglans regia (protein, listed as Juglans regia)
chain: MNGTSSLLAPIAKRLAGKVALITGGASGIGESTARLFAEQGAKVIIADVQDELGFSVSQDKSINGAISYIHCDVTSESDVQNAVNTAVSKHGKLDIMFNTAGCTGQNKASILDHEQKDYKTVFDVNVLGSFLGAKHAAKVMIPVKRGTILFTASCVTESHGLASHSYTASKHAVVGLTKNLCVELGQYGIRVNCISPYGAATPLFLKGMGIDKKEKAEEILSSAANLKGPVLEAGDLAEAALFLASEESKYVSVLNLVVDGGYSATNVAFTETIQKFFT
Question: With B3 as the molecule, how does the “Enzyme activity in terms … (in %)” value (substrate tested: Secoisolariciresinol) read?
Answer: 99%

B4: Caffeoyl CoA O-methyltransferase (CCoAOMT) (SEQ ID NO: 18) Chamaecyparis formosensis (protein)
chain: MATVEATKDSTQQVSRHQEVGHKSLLQSDALYQYILETSVYPREPEPMRELREITAKHPWNLMTTSADEGQFLHLLLKLINAKNTMEIGVYTGYSLLSTALALPDDGKILAMDINRENYELGLPVIQKAGVAHKIDFREGPALPVLDQMLENKEMHGSFDFIFVDADKDNYLNYHKRLIDLVKIGGVIGYDNTLWNGSVVAPPDAPMRKYVRYYRDFVIELNKALAADPRIEISQIPVGDGITLCRRII
modifications: Depicts the amino acid sequence of Caffeoyl CoA O-methyltransferase (CCoAOMT) of Chamaecyparis formosensis
Question: For B4, which “Enzyme activity in terms … (in %)” value (substrate tested: Caffeoyl coA) is on record?
Answer: 95%

B5: CYP71 (SEQ ID NO: 32) Cinnamomum micranthum (protein)
chain: MALLLSLLFFASALIFLLKLNGQRANKTDVPPSPPKLPLIGNLHQLGTLPHRSLRSLAGKYGPLMLLYLGRIPTLIVSSEEMAEQIMKTHDLIFASRPSITAAKELLYGCTDLAFASYGEYWRQVRKMCVLELLSIKRVNSFRSIMEEEVGLMIERISQSSSTGAAVNLAELFLSLTGGTIARAALGKKYEGEAEEGRNKYADLVKELHALLGAFSVGDYFPSLAWVDVVTGLHGKLKRNSRELDRFLDQVIEHHLMRPLDGCDVGEHTDLVDVMLQVQKDSNRDIHLTRDNIKAIILDMFSAGTDTTALTLEWVMAELAKHPNVMKKAQGEVRRVVDVKANISEEHLCQLNYMKSIIKETLRLHPPAPLLVPRESTTNVKIQNFHIPPKTRVFINAYAIGRDPTSWENPEEFLPERFANNSVDFKGQDFQFIPFGAGRRGCPGLSFAITSLELALANLLYWFDWELPQGVTEEDLDMSEALGITVHKKLPLYLVPKNHFS
modifications: Depicts the amino sequence of CYP71 of Cinnamomum micranthum
Question: How did the “Enzyme activity in terms … (in %)” value (substrate tested: Bursehernin) turn out when B5 was run?
Answer: 94%

B6: Bifunctional pinoresinol-lariciresinol reductase (DIRPLR) (SEQ ID NO: 20) Linum usitatissimum (protein, listed as Linum usitatissimum)
chain: MGRCRVLVVGGTGYIGKRIVKASIEHGHDTYVLKRPETGLDIEKFQLLLSFKKQGAHLVEASFSDHESLVRAVKLVDVVICTVSGAHSRSLLLQLKLVEAIKEAGNVKRFIPSEFGMDPARMGDALEPGRETFDLKMVVRKAIEDANIPHTYISANCFGGYFVGNLSQLGPLTPPSDKVTIYGDGNVKVVYMDEDDVATYTIMTIEDDRTLNKTMYFRPPENVITHRQLVETWEKLSGNQLQKTELSSQDFLALMEGKDVAEQIVIGHLYHIYYEGCLTNFDIDADQDQVEASSLYPEVEYTRMKDYLMIYL
Question: Which “Enzyme activity in terms … (in %)” value (substrate tested: Coniferyl alcohol) does the source give for B6 here?
Answer: 98%

B7: Caffeoyl CoA O-methyltransferase (CCoAOMT) (SEQ ID NO: 16) Eleocharis dulcis (protein)
chain: MSTTTTTQTKTETQSQTGAQNGAEQQTRHSEVGHKSLLQSDALYQYILETSVYPREPECMKELRDITAKHPWNLMTTSADEGQFLNLLLKLIGAKKTMEIGVYTGYSLLATALAIPEDGTILAMDINRENYELGLPVIEKAGVAHKIDFREGPALPVLDQLIEDPANLGSFDFIFVDADKDNYLNYHKRLIELVKVGGVIGYDNTLWNGSVVLPADAPMRKYIRYYRDFVLELNKALAADPRIEISQLPVGDGITLCRRVK
modifications: Depicts the amino acid sequence of enzyme Caffeoyl CoA O-methyltransferase (CCoAOMT)
Question: How did the “Enzyme activity in terms … (in %)” value (substrate tested: Caffeoyl coA) turn out when B7 was run?
Answer: 61%

B8: O-methyltransferase 3 (OMT) (SEQ ID NO: 28) Papaver somniferum (protein, listed as Papaver somniferum)
chain: MEVVSKIDQENQAKIWKQIFGFAESLVLKCAVQLEIAETLHNNVKPMSLSELASKLPAQPVNEDRLYRILHFLVHMKLFNKDATTQKYSLAPPAKYLLKGWEKSMVPSILSVTDKDFTAPWNHLGDGLTGNCNAFEKALGKGIRVYMRENPEKDQLFNEGMACDTRLFASALVNECKSIFSDGINTLAGVGRGTGTAVKAISKAFPDIKCTIHDLPEVTSKNSKIPRDVFKSVPSADAIFMKSILHEWNDEECIQILKRCKEAIPKGGKVIIADVVIDMDSTHPYSKSRLAMDLAMMLHTGGKERTEEDWKKLIDAAGFASCKITKLSALQSVIEAYPH
Question: How did the “Enzyme activity in terms … (in %)” value (substrate tested: Pluviatolide) turn out when B8 was run?
Answer: 88%

B9: CYP719 Coptis japonica (protein, UniProt Q948Y1 1-491, looked up)
(S)-canadine synthase: MEMNPLLVCATVAIVFATTTIIRILFSSSSLPQMKWPSGPRKLPIIGNLHQLGDDVLHVALAKLAKVHGSVMTIWIGSWRPVIVISDIEKAWEVLVNKSADYGARDMPEITKIASASWHTISTSDAGSFWQNVRKGLQSGAMGPLNVAAQNQYQERDMKRLIKAMSDEAANNNGIVKPLDHIKKNTVRLLTRLIFGQAFDDNKFIESMHYEIEDIIRISGYARLAEAFYYAKYLPSHKKAEREAFLVKCRVEELVRPLLSSKPPTNSYLYFLLSQNFEEEVIIFCIFELYLLGVDSTSSTTTWALAYLIREQGAQEKLYQDIRMTLGDVDLVKIEDVNKLKYLQGVVKETMRMKPIAPLAIPHKTAKETTLMGTKVAKGTRIMVNLYALHHNQNIWPDPYKFMPERFLEGETGTAYNKAMEQSFLPFSAGMRICAGMDLGKLQFAFALANLVNAFKWSCVEEGKLPDMGEELSFVLLMKTPLEARIAGRNV
Question: B9 was tested. Which “Enzyme activity in terms … (in %)” value (substrate tested: Matairesinol) did it give?
Answer: 0%

B10: CYP719 (SEQ ID NO: 26) Cinnamomum micranthum (protein)
chain: MEAIWTAVAIGIAAAVLMAFRGRQRQRLSRKPTQWPPGPTRLPLIGNMHQILLKGGDPFHVAINKLAQVYGPLMTVWFGTRQPTIIVSDHNLVWEVLVSKSADYAAREIPITLKPSLADFRTIVSSNAGPLWHSLRRGLQNGAIGPHSLSLQAPFQESDMAQMINNMIKEANLNGGVVKPFPHIRRAIIKLLARICFGCDFSDEEFDATMDFMVEEALRYSDDSRILDTFPPARFLPSVKRAVMQMEKVKLRLMECIGRPLDSPLPPTCYAHFLLSQSFPREVAIFSIFELFLLGVDSTGSTTMWGLGLLMQNQEAQQKLYQEIREHASCNEKGVVKVEELGKLEYLQAVAKETMRMKPIAPLAVPHQAARDTTLDGLHVAEGTTVLANLYALHYDPKVWDEPERFKPERFLESSKEFLGKRGQYSFLPFGAGMRACAGMEVGKLQLPFAICNLVNAFNWSNVVEKEAPKLIEGFSFILSMKTPLEARIVPRGI
modifications: Depicts the amino acid sequence of CYP719 of Cinnamomum micranthum
Question: How did the “Enzyme activity in terms … (in %)” value (substrate tested: Matairesinol) turn out when B10 was run?
Answer: 97%

Source: patent publication US11898183B2, “Programmed microorganisms to attenuate a disease” (priority 2020, dated 2024)
